# Experimental data published in patent publication US10736988B2, “Bone substitute nanocomposites and methods of synthesis using multiphosphorylated peptides” (UNIVERSITY OF PITTSBURGH—OF THE COMMONWEALTH SYSTEM OF …, priority 2012, dated 2020).
# “And” between values parts separate entries of the source, which are not always exact repeats. Identical values can stand only once. Like-named read-outs stand apart in the source and are kept apart here.
# Legend:
# Casein Kinase 1 (CK1) = conditions: for average number of phosphates per peptide: SD in parenthesis
# Protocol: R-SSD3 indicated by SEQ NO. 2 was phosphorylated in vitro by CK1, CK2 or a mixture of both kinases. ATP was used as a source of phosphate; and [γ-^32P] ATP was used for the scintillation counter experiments. The standard assay mixture consisted of 50 mM Tris-HCl, pH 7.4, 5 mM MgCl2, 1 mM EGTA and 10 mM β-glycerophosphate. […] The samples were vortexed and kept for 20 minutes at room temperature before transferring into a water bath at 30° C. The reaction was started by adding 10 μl of ATP (cold Mg-ATP and 1 μCi of [γ-^32P] ATP) and the reaction mixture was incubated at 30° C. in a shaker for 1 hr. To assess the kinetics of the reactions, phosphorylation was allowed to proceed for 20 minutes, 1 hour, 4 hours and 24 hours before the reaction was stopped. The reaction was terminated by adding 40 μl of loading Tricine sample buffer (200 mM Tris-HCl, pH 6.8, 2% SDS, 40% glycerol, 0.04% Coomassie G-250 dye). The samples were then boiled in a water bath for five minutes and subjected to electrophoresis on 16.5% Tris-Tricine gel run using Tris-Tricine/SDS buffer (containing 100 mM Tris, 100 mM Tricine, 0.1% SDS, pH 8.3) at 100V for 1.5 hours.
# In vitro phosphorylation assay was performed according to conventional procedure. 25 ul reactions containing 1 μg of R-SSD3 peptide indicated by SEQ NO. 2, in the presence and absence of 300 ng of either CK1 or CK2 or both containing 10 μCi ^32P γ [ATP]. The reactions were performed in triplicate at 30° C. for 1 hour, 4 hours and 24 hours using one batch of radiolabeled ATP and enzymes from a single lot.
# The reaction products were purified using SDS-PAGE, visualized by autoradiography, and band intensities were quantified using a Kodak 1D 3.6 imaging system. After autoradiography, the gel was overlaid on the autoradiogram, the individual protein bands were excised and ^32P incorporation was determined using a liquid scintillation counter (Beckman LS6500 system). To calculate the number of moles of phosphates transferred to 1 ug of peptide ([…]) in the kinase reaction, the mean counts per minute obtained in the kinase reactions from triplicates (minus blank) are divided by the specific activity of the ^32Pγ[ATP] in the kinase assay, as follows.
# Casein Kinase 2 (CK2) = biological target: T1, Casein Kinase 2 (CK2) (Homo sapiens, UniProt P68400); test: In vitro phosphorylation of peptide by CK2 (32P scintillation / autoradiography); format: biochemical; conditions: for average number of phosphates per peptide: SD in parenthesis
# T1 construct: purchased Millipore Inc. 14-197
# Text: (§1) R-SSD3 indicated by SEQ NO. […] ATP was used for the scintillation counter experiments.
# type I collagen fibrils = biological target: T2, type I collagen fibrils (Rattus norvegicus, UniProt P02454+P02466); test: On-grid mineralization of reconstituted collagen fibrils (TEM/SAED)
# T2 construct: from an acidic rat tail collagen solution; from tissue; host or cells: rat tail
# Protocol: Mineralization experiments were carried out using a modification of an “on grid” mineralization setup developed in a lab and published in the art. The type I collagen fibrils were reconstituted on carbon-coated Cu grids, mesh #400 (EMS, Hatfield, Pa.) from an acidic rat tail collagen solution. Concentrated 10×PBS (mono- and disodium phosphate totaling 40 mM and 1.5 M NaCl), phosphorylated with CK2 and nonphosphorylated protein stock solution, […] to obtain 4 mM PBS, 1.67 mM Ca and 15 μg/ml peptide. Prior to the experiments, the pH of concentrated 10×PBS was adjusted such that upon mixing, the pH of the final mineralization solution was 7.8. The TEM grids coated with reconstituted collagen fibrils were floated on 50 μL droplets of the mineralization solution at 100% humidity for 16 hours at 37° C.
# TEM and selected area electron diffraction (SAED) studies were conducted using JEOL 1210 operated at 100 kV. The micrographs were recorded using an AMT CCD camera (AMT, Danvers, Mass.). An aluminum-coated TEM grid (EMS Hatfield, Pa.) was used as a standard for the calibration of SAED patterns for d-spacing calculations. The micrographs were analyzed using an ImageJ 1.38 software package (Bethesda, Md.).
# CK1 and CK2 = test: In vitro phosphorylation of peptide by CK1 and CK2 combined (32P scintillation); format: biochemical; conditions: for average number of phosphates per peptide: SD in parenthesis
# Text: as §1
# mixture of CK1 and CK2 = test: Mass spectrometry identification of phosphates incorporated by a mixture of CK1 and CK2; format: biochemical; conditions: MS, one hour
# Protocol: For mass spectrometry (MS) analysis, the reaction was performed as above, however, radiolabeled ATP was not used and the reaction mixture was transferred into a Tube-O-DIALYZER with a MWCO of 1000 and dialyzed overnight.
# For MALDI-TOF-MS analysis, the peptides and CHCA matrix (α-cyano-4-hydroxycinnamic acid, 10 μg/μl, in 50% acetonitrile containing 0.1% trifluoroacetic acid) solutions were premixed in a small Eppendorf tube, spun down and remixed three times, then applied directly to the sample plate. Once applied to the target, the sample was allowed to air dry. The samples were analyzed using an Applied Biosystems (Foster City, Calif.) Voyager DE Pro or 4700 Proteomics Analyzer TOF/TOF instrument. The samples were also analyzed by LC-MS/MS on a ThermoFischer (Waltham, Mass.) Surveyor LC System coupled to a ThermoFischer LCQ Deca XP Plus mass spectrometer equipped with a nanospray ion source and also a ThermoFischer LTQ-XL instrument. The LC System contained a sample trap followed by a C18 column (BioBasic C18 PicoFrit column, 10 cm×75 μM, New Objective, Inc., Woburn, Mass.). […]
# Upon elution of the C18 column, the analyte was ionized by nano-capillary ESI. […] The MS/MS spectra were analyzed with BioWorks 3.2 Browser with the Sequest search engine. […]
# T1 sequence (P68400 whole entry): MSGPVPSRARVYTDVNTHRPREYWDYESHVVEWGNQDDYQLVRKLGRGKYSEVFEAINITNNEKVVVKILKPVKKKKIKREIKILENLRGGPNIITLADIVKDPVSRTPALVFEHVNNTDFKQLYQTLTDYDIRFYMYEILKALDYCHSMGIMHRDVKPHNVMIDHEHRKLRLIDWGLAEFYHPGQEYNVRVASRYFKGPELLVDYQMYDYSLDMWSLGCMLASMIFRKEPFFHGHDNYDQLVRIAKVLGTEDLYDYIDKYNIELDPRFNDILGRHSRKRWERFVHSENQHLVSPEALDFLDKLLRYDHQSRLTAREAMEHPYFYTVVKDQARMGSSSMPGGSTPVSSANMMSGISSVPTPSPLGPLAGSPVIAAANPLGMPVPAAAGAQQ
# T1 sequence (P67870 whole entry partner): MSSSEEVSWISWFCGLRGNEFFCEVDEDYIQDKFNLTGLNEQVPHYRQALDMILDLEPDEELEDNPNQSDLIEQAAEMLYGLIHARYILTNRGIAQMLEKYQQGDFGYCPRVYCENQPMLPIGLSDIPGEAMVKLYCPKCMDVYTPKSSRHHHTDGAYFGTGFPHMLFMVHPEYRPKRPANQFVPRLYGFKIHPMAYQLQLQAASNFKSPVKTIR
# T2 sequence (P02454 152-1207 limits assumed): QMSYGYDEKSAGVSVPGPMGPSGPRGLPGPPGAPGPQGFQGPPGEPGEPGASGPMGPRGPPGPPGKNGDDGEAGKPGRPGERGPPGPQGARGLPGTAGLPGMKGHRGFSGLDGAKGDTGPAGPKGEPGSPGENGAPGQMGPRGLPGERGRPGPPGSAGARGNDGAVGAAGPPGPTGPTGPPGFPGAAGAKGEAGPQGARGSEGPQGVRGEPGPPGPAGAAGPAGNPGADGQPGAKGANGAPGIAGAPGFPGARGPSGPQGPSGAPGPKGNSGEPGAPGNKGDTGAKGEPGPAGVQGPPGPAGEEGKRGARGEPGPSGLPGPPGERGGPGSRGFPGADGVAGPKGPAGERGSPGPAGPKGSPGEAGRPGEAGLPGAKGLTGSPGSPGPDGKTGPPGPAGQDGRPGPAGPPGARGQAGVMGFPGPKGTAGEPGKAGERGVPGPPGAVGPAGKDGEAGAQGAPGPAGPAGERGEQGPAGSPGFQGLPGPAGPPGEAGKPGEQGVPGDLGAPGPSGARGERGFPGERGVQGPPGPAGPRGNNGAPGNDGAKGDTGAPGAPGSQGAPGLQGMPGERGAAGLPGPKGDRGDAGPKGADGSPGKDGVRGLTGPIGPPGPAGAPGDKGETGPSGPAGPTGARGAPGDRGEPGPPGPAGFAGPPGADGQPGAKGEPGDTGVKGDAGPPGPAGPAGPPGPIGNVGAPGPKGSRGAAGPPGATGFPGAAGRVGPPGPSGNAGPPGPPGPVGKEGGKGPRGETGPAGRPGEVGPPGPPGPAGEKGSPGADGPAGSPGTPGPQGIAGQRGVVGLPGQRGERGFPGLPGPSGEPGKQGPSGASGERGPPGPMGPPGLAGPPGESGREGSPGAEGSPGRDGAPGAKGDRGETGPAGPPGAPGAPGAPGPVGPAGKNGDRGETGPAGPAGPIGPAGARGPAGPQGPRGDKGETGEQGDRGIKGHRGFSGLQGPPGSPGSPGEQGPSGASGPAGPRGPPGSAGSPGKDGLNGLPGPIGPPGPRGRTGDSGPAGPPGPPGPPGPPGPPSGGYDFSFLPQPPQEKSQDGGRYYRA
# T2 sequence (P02466 86-1125 limits assumed): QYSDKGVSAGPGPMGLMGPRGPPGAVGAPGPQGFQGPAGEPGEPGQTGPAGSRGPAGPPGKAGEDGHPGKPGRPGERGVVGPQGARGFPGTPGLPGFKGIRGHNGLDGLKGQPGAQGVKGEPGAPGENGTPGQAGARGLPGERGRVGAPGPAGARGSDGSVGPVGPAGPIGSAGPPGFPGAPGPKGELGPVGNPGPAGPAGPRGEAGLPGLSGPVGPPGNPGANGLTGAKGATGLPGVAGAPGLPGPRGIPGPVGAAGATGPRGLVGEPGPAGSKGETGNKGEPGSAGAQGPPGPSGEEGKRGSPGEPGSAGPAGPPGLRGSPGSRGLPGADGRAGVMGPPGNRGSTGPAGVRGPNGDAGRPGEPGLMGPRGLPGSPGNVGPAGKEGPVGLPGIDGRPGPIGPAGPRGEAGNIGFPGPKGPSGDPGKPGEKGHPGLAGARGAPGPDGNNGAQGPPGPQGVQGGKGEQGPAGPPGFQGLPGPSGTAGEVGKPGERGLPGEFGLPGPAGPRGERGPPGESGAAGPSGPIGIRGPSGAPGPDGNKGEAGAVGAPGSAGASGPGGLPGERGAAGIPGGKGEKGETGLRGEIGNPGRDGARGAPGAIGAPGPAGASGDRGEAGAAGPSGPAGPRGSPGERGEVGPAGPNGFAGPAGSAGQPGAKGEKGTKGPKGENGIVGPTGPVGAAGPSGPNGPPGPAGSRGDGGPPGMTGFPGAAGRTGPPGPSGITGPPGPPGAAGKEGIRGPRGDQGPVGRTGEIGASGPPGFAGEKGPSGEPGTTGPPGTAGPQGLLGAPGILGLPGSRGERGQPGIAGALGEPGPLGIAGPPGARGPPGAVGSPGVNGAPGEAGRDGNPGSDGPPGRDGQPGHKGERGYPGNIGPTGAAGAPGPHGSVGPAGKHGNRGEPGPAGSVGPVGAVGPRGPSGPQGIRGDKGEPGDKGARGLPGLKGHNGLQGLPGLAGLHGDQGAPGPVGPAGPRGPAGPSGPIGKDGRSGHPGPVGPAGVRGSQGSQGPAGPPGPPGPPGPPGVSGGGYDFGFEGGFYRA
molecule,measurement,setting,value
… (derived from consensus mammalian sequence of DSPP; (8)..(68) [Asp Ser Ser] repeats (n varies from 2 to 20); (1)..(3) Insertion of 3 Arg at the N terminus of the peptide; (4)..(7) Casein kinase 1 recognition motif; (69)..(71) Casein kinase 2 recognition motif) RRRDEDESSDSSDSSDSSDSSDSSDSSDSSDSSDSSDSSDSSDSSDSSDSSDSSDSSDSSDSSDSSDDEG,average number of phosphates per peptide,"Casein Kinase 1 (CK1); CK1, 1 hour",0.006 (0.002) phosphates per peptide
same,average number of phosphates per peptide,"Casein Kinase 1 (CK1); CK1, 4 hours",0.139 (0.103) phosphates per peptide
same,average number of phosphates per peptide,"Casein Kinase 1 (CK1); CK1, 24 hours",1.8 phosphates per peptide and 1.778 (1.196) phosphates per peptide
same,share of all serines phosphorylated,"Casein Kinase 1 (CK1); CK1 group, 24 hours",30%
same,average number of phosphates per peptide,"Casein Kinase 2 (CK2); CK2, 1 hour",0.0148 (0.015) phosphates per peptide
same,average number of phosphates per peptide,"Casein Kinase 2 (CK2); CK2, 4 hours",0.435 (0.099) phosphates per peptide
same,average number of phosphates per peptide,"Casein Kinase 2 (CK2); CK2, 24 hours",4.4 phosphates per peptide and 4.354 (0.957) phosphates per peptide
same,share of all serines phosphorylated,"Casein Kinase 2 (CK2); CK2 group, 24 hours",73%
same,collagen fibril mineralization pattern,"type I collagen fibrils; 15 μg/ml peptide, 16 hours, 37° C., pH 7.8, TEM",randomly oriented crystals formed throughout the grid
same,mineral nucleation outside of the collagen fibrils,"type I collagen fibrils; TEM, phosphorylated peptide experiments",suppressed mineral nucleation outside of the collagen fibrils
same,share of all serines phosphorylated,"CK1 and CK2; CK1+CK2 group, 24 hours",58%
same,average number of phosphates per peptide,"CK1 and CK2; CK1 and CK2, 1 hour",0.0191 (0.007) phosphates per peptide
same,average number of phosphates per peptide,"CK1 and CK2; CK1 and CK2, 4 hours",0.343 (0.124) phosphates per peptide
same,average number of phosphates per peptide,"CK1 and CK2; CK1 and CK2, 24 hours",3.5 phosphates per peptide and 3.4555 (1.755) phosphates per peptide
same,maximum number of phosphates incorporated onto the peptide,mixture of CK1 and CK2,four out of six possible
